Data as given in US20120208291A1.

Target: acceptor complex of syntaxin linked to SNAP-25 (UniProt O16000)
Assay: KISMI single-molecule imaging

Chain of UniProt O16000 (O16000 1-265, one chain of several): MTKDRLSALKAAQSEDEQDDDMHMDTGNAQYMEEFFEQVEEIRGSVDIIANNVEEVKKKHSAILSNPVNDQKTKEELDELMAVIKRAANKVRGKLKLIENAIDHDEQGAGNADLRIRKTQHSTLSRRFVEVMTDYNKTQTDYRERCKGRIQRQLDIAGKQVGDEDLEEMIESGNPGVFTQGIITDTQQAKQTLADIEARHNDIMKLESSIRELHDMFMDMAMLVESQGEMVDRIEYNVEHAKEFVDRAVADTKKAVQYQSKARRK

Kd: 1.7 µM
Substance: synaptobrevin (from UniProt O02495 1-86)
